Measurements reported in publication PMC7417313, “Characterization of Binding Properties of Individual Functional Sites of Human Complement Factor H” (Frontiers in Immunology, 2020).

Biological target: T1, C3b (human)
T1 construct: human complement C3, beta chain, as in C3b; human complement C3, alpha' chain of C3b (alpha chain without C3a); Mr 176,000 used; also called soluble C3b; fluid phase C3b
Test: SPR; His-tagged rH fragment held on a Ni-charged NTA chip (BIAcore X or 3000; 500-1,000 RU, reloaded for each injection), C3 protein injected in HBS-P (10 mM HEPES pH 7.4, 150 mM NaCl, 0.005% P20) at 5 μL/min, 25°C; reference cell with nickel only; equilibrium levels fitted to a one-site equation
Settings: both partners purified

Kd: 15 µM
B1: recombinant Factor H fragment rH 6-15 (domain or fragment)
chain: PCDYPDIKHGGLYHENMRRPYFPVAVGKYYSYYCDEHFETPSGSYWDHIHCTQDGWSPAVPCLRKCYFPYLENGYNQNYGRKFVQGKSIDVACHPGYALPKAQTTVTCMENGWSPTPRCIRVKTCSKSSIDIENGFISESQYTYALKEKAKYQCKLGYVTADGETSGSITCGKDGWSAQPTCIKSCDIPVFMNARTKNDFTWFKLNDTLDYECHDGYESNTGSTTGSIVCGYNGWSDLPICYERECELPKIDVHLVPDRKKDQYKVGEVLKFSCKPGFTIVGPNSVQCYHFGLSPDLPICKEQVQSCGPPPELLNGNVKEKTKEEYGHSEVVEYYCNPRFLMKGPNKIQCVDGEWTTLPVCIVEESTCGDIPELEHGWAQLSSPPYYYGDSVEFNCSESFTMIGHRSITCIHGVWTQLPQCVAIDKLKKCKSSNLIILEEHLKNKKEFDHNSNIRYRCRGKEGWIHTVCINGRWDPEVNCSMAQIQLCPPPPQIPNSHNMTTTLNYRDGEKVSVLCQENYLIQEGEEITCKDGRWQSIPLCVEKIPCSQPPQIEHGTINSSRSSQESYAHGTKLSYTCEGGFRISEENETTCYMGKWSSPPQCEG
modifications: Limits from Sushi 6 start to Sushi 15 end (928 by convention, as the candidate feature list is cut off after Sushi 12). Residue 402 is set to Tyr as printed (Y402 variant), whichever allele the entry
